One series has as its system MCF7 cells. Kind of series: Chromium-release cytotoxicity assay, MCF7 cells and survivin-specific CTL. Type of series: cell-based. The settings on record: MCF7 cells pre-treated with 250 ng/ml PTX for 1 h, compared to CCR9 gene knockdown. How it is done: (§1) Tumor cells were transfected with the described siRNAs using RNAiMAX or with pCMV6-AC-His-CCR9 encoding vector and empty control vector (OriGene, Rockville, USA) using TransIT-LT1. 72 h later, transfected cells were harvested for chromium-release cytotoxicity assay as detailed in Supplementary Methods. For CCR9 blockade using pertussis toxin (PTX), […] tumor cells were incubated with 250 ng/ml of PTX (Sigma Aldrich) for 1 h at 37° C. before labeling with radioactive chromium.

A further series relates to CCR9+ tumor cells. Kind of series: Transwell migration assay toward CCL25. Type of series: cell-based.
In the next series the test system is CCL25. Kind of series: ELISA of CCL25 levels in tumor cell lysates. The format is cell-based. As to conditions: stable knockdown.
Another series has as its system M579-A2 tumor cells. In words: Chromium-release cytotoxicity assay, M579-A2 melanoma cells and TIL 209. The format is cell-based, human. As to conditions: stable CCR9 knockdown M579-A2 versus shControl.
Description: MCF7, MDA-MB-231 (breast cancer), and PANC-1 pancreatic cancer cells were acquired from American Type Cell Culture (Wesel, Germany). MCF7luc cells were generated by electroporation with pEGFP-Luc plasmid and expansion of sorted GFP+ clones in selection medium containing […] G418 (Gibco, UK). M579-A2 melanoma culture was established from a patient and stably transfected with HLA-A2 expression construct as described before (Machlenkin et al, 2008). For stable CCR9 knockdown, lentiviral particles were produced using the pRSI9-U6-TagRFP-2APuro lentiviral expression vector (Cellecta) that contained either the CCR9-specific shRNA hairpin ([…]: SEQ ID NO. 5) or control nontargeting shRNA. Viruses were packaged using the psPAX2 and pMD2.G packaging plasmids (Addgene), and tumor cell lines were transduced with the viral particles as per the manufacturer's protocol.
as §1

For the next series, the system named is HLA-A2. Kind of series: Surface HLA-A2 expression on M579-A2 cells. The format is cell-based, human. As to conditions: M579-A2 upon CCR9 knockdown.
The subject of another series is M579-A2 tumors. Kind of series: In vivo M579-A2 tumor growth in NSG mice with adoptive TIL 209 transfer. How it is done: Appropriate approval for animal work was obtained from the regulatory authorities (Regierungsprasidium, Karlsruhe) before the start of the experiment. Four- to six-week-old female NSG mice were ordered from the Animal Core Facility at DKFZ, Heidelberg. Mice were subcutaneously injected with 5×10^5 cells (in 100 μl of matrigel per injection) of each CCR9-M579-A2 (transduced with CCR9-specific shRNA) and CCR9+M579-A2 (transduced with non-targeting control shRNA) cell lines in the left and the right flank, respectively. Following this, at Day 2 and Day 9, 7 out of the 10 tumor-bearing mice received adoptive transfer of expanded TIL 209 cells intravenously into the tail vein (1×10^7 cells/100 μl PBS/mouse). The remaining three mice were injected with PBS alone to assess tumor growth in the absence of adoptive TIL transfer. Tumor measurements were performed using a digital caliper (Carl Roth) at the indicated time points, and tumor volume was measured using the formula: volume=height*width*width*(n/3).
Differences between test and control groups were analyzed by two-sided Student's t-test. In all statistical tests, a P-value <0.05 was considered significant. Statistical difference between the tumor growth curves in vivo was assessed using the unpaired one-sided Mann-Whitney U-test.

As to pertussis toxin, in the series with MCF7 cells, the “Tumor lysis by antigen-specific T cells” value is on record as “did not elicit elevated tumor lysis”. For the same molecule, the “Migration of CCR9+ tumor cells toward CCL25” value in the series on CCR9+ tumor cells was “inhibited the migration”.

B1: CCR9-specific shRNA (nucleic acid)
DNA: ACCGGGCCAGTGGAGGTCTTTGTTCTGTTAATATTCATAGCAGAACAAGGACCTTCACTGGCTTTT
Consider B1, for which, in the series with CCL25, the “CCL25 production by MCF7 breast cancer cells” value is reported as “did not affect”. In addition, the “Immune lysis by tumor-infiltrating lymphocytes (TIL 209)” value with M579-A2 tumor cells is listed as “more susceptible to immune lysis”. In addition, in the series with HLA-A2, the “Surface HLA-A2 expression” value is on record as “no significant difference”. For the same molecule, the “Tumor growth kinetic without T cell transfer” value with M579-A2 tumors (CCR9- versus CCR9+ M579-A2 tumors in NSG mice given PBS alone) is “No difference”. Besides, in the series on M579-A2 tumors (CCR9- versus CCR9+ M579-A2 tumors s.c. in NSG mice, TIL 209 i.v. at Day 2 and Day 9), the “Tumor growth in response to adoptive T cell transfer” value is “grew significantly slower”.

Source of the values: patent US20200164068A1, “MODULATORS OF TUMOR IMMUNE RESISTANCE FOR THE TREATMENT OF CANCER” (DEUTSCHES KREBSFORSCHUNGSZENTRUM STIFTUNG DES ÖFFENTLICHEN …, priority 2016, published 2020).
